The target of assay [1] is T1, human ROR1 protein (recombinant ROR1 antigen, Kactus Biosystems) (human, UniProt Q01973 30-406, limits assumed). Description: BLI (Octet R8), antibody captured on AHC sensor, ROR1 antigen as analyte. A general note: BLI is a label-free optical method that tracks binding on a fibre tip over time.
Assay [2] deals with T2, human ROR1 expressed on cells (MDA-MB-231, Jeko-1, PA-1, HCC1187) (human, UniProt Q01973 30-937).
T2 construct: also called hROR1
Kind of assay: flow cytometry on Jeko-1 cells. On the technique in general: In flow cytometry, cells or beads pass a laser one at a time.

The target of assay [3] is T2, human ROR1 expressed on cells …. Description: flow cytometry on PA-1 cells.
Assay [4] has as its target T1, human ROR1 protein (recombinant ROR1 …). Description: binding to ROR1 (column 'Binding to ROR1'; method not described).
Assay [5] deals with T2, human ROR1 expressed on cells …. Description: flow cytometry on MDA-MB-231 cells.
In assay [6] the target is human ROR2 protein (hROR2, Kactus Biosystems, Cat. No. ROR-HM402) (human, UniProt Q01974 34-403, limits assumed). Description: ELISA, plate coated with hROR2. For orientation: In an ELISA, binding on a coated surface is turned into a signal by an enzyme label.
Chain of human ROR2 protein (hROR2, Kactus Biosystems, Cat. No. ROR-HM402) (Q01974 34-403 limits assumed): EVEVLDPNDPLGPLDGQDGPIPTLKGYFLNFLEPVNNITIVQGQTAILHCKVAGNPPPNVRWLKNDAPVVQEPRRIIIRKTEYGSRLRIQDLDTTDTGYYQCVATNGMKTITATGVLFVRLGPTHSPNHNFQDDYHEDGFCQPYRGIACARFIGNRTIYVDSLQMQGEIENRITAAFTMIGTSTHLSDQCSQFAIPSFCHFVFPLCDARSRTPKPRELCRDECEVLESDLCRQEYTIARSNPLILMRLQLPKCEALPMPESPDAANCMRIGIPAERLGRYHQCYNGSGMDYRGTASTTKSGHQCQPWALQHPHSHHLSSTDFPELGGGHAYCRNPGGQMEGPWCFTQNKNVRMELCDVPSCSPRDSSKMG
In assay [7] the target is T1, human ROR1 protein (recombinant ROR1 …). Description: BLI (Octet R8).

T1 sequence (Q01973 30-406 limits assumed): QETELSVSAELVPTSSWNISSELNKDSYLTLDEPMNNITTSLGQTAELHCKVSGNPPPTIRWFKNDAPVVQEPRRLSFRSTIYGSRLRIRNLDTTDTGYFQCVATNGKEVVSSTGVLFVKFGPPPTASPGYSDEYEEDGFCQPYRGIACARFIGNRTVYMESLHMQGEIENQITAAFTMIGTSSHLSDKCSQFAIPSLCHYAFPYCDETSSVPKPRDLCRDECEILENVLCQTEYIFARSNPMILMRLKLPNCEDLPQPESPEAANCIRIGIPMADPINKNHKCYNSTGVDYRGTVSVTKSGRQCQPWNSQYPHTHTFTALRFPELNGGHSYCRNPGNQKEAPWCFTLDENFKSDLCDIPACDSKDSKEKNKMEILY
T2 sequence (Q01973 30-937 limits assumed): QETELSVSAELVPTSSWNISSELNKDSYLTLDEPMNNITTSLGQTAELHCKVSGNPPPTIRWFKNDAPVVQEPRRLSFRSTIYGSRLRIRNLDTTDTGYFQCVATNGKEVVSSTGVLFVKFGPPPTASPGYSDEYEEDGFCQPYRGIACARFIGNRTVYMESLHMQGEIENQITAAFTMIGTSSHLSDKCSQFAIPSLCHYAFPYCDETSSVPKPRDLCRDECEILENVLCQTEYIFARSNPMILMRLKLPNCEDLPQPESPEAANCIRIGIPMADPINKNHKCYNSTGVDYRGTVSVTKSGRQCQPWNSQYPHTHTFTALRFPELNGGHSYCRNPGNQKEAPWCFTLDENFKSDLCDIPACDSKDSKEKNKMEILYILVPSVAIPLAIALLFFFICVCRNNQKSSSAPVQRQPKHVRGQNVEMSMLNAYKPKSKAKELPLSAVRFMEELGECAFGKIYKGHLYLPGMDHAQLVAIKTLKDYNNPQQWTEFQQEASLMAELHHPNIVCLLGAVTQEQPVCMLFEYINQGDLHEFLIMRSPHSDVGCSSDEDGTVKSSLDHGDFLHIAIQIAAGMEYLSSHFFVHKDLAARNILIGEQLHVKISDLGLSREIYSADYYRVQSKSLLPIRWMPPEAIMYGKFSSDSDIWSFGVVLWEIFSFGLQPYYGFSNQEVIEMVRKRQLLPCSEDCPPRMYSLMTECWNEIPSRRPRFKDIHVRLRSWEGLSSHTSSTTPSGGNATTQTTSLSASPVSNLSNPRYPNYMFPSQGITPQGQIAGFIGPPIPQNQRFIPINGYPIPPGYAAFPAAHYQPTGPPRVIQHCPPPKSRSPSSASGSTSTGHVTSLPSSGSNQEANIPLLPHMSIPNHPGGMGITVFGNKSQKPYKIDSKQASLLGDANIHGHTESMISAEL

B1: AM3-ZH3 (antibody, human IgG1, kappa, V domains shown)
VH: EVQLVESGGGLVQPGGSLRLSCAASGFTFSSYPMSWVRQAPGKGLEWVSSISTGASAYFPDSVKGRFTISRDNAKNSLYLQMNSLRAEDTAVYYCARITTSTWYMDVWGQGTTVTVSS
VL: DIQMTQSPSAMSASVGDRVTITCKASQDIYSYLSWFQQKPGKVPKTLIYRANRLVRGVPSRFSGSGSGQEYTLTISSLQPEDMATYYCLQYDEFPYTFGQGTKLEIKR
notes: human IgG1 / kappa
On to B1, for which the Kd in assay [1] is 5 nM. The EC50 in assay [2] was 0.031 nM; in assay [3], 0.33 nM; in assay [4] it was 0.0123 µg/mL; in assay [5], 0.011 µg/mL. In addition, the MFI fold was 2.8 fold in assay [2] and 2.5 fold in assay [3]. The binding result in assay [6] is on record as “no binding (tested: starting from 333.33 nM)”. Besides, the “fold affinity against H10-hVH4-hVL4” value in assay [7] worked out at 9 fold.

For orientation: Kd means the concentration at which binding is half-saturated. One may read the EC50 as the concentration at which the effect is half-maximal.

(Values after EP4696329A1 (BioRay Pharmaceutical Co., Ltd., dated 2024).)
